Results published in patent US20240400618A1 (GRIFOLS DIAGNOSTIC SOLUTIONS, published 2024).
Where two headings read alike, the source gives them in different places.

Tests used:
pxENB17-RBD-His [1] = target: T1, pxENB17-RBD-His (SARS-CoV-2, UniProt P0DTC2 319-541)
pxENB9-FLS-CT-His [2] = target: T2, pxENB9-FLS-CT-His (SARS-CoV-2, UniProt P0DTC2 15-1213)
pxENB17-RBD-His [3] = target: T1, pxENB17-RBD-His; remark: listed apart in the source
pxENB17-RBD-His [4] = target: T1, pxENB17-RBD-His; assay: BLI (Octet), ACE2 construct loaded on SA tips by its tag, RBD as analyte
pxENB9-FLS-CT-His [5] = target: T2, pxENB9-FLS-CT-His; remark: listed apart in the source

Row | Binder | Kd (pxENB17-RBD-His [1]) [nM] | Kd (pxENB9-FLS-CT-His [5]) [nM] | other results
1 | pxEBNCP9_hIL2-hACE2(18-615) (receptor) QSTIEEQAKTFLDKFNHEAEDLFYQSSLASWNYNTNITEENVQNMNNAGDKWSAFLKEQSTLAQMYPLQEIQNLTVKLQLQALQQNGSSVLSEDKSKRLNTILNTMSTIYSTGKVCNPDAPAECLLLEPGLNEIMANSLDYNERLWAWESWRSEVGKALRPLYEEYVVLKNEMARANHYEDYGDYWRGDYEVNGVDGYDYSRGQLIEDVEHTFEEIKPLYEHLHAYVRAKLMNAYPSYISPIGCLPAHLLGDMWGRFWTNLYSLTVPFGQKPNIDVTDAMVDQAWDAQRIFKEAEKFFVSVGLPNMTQGFWENSMLTDPGNVQKAVCHPTAWDLGKGDFRILMCTKVTMDDFLTAHHEMGHIQYDMAYAAQPFLLRNGANEGFHEAVGEIMSLSAATPKHLKSIGLLSPDFQEDNETEINFLLKQALTIVGTLPFTYMLEKWRWMVFKGEIPKDQWMKKWWEMKREIVGVVEPVPHDETYCDPASLFHVSNDYSFIRYYTRTLYQFQFQEALCQAAKHEGPLHKCDISNSTEAGQKLFNMLRLGKSEPWTLALENVVGAKNMNVRPLLNYFEPLFTWLKDQNKNSFVGWSTDWSPYAD | 45.1 | – | –
2 | pxEBNCP25_hACE2-AAA(1-615) (receptor) QSTIEEQAKTFLDKFNHEAEDLFYQSSLASWNYNTNITEENVQNMNNAGDKWSAFLKEQSTLAQMYPLQEIQNLTVKLQLQALQQNGSSVLSEDKSKRLNTILNTMSTIYSTGKVCNPDAPAECLLLEPGLNEIMANSLDYNERLWAWESWRSEVGKALRPLYEEYVVLKNEMARANHYEDYGDYWRGDYEVNGVDGYDYSRGQLIEDVEHTFEEIKPLYEHLHAYVRAKLMNAYPSYISPIGCLPAHLLGDMWGRFWTNLYSLTVPFGQKPNIDVTDAMVDQAWDAQRIFKEAEKFFVSVGLPNMTQGFWENSMLTDPGNVQKAVCHPTAWDLGKGDFRILMCTKVTMDDFLTAHHEMGHIQYDMAYAAQPFLLRNGANEGFHEAVGEIMSLSAATPKHLKSIGLLSPDFQEDNETEINFLLKQALTIVGTLPFTYMLEKWRWMVFKGEIPKDQWMKKWWEMKREIVGVVEPVPHDETYCDPASLFHVSNDYSFIRYYTRTLYQFQFQEALCQAAKHEGPLHKCDISNSTEAGQKLFNMLRLGKSEPWTLALENVVGAKNMNVRPLLNYFEPLFTWLKDQNKNSFVGWSTDWSPYAD | 73.3 | – | –
3 | pxEBNCP19_mIgGHC_hACE2-3A (receptor) QSTIEEQAKTFLDKFNHEAEDLFYQSSLASWNYNTNITEENVQNMNNAGDKWSAFLKEQSTLAQMYPLQEIQNLTVKLQLQALQQNGSSVLSEDKSKRLNTILNTMSTIYSTGKVCNPDAPAECLLLEPGLNEIMANSLDYNERLWAWESWRSEVGKALRPLYEEYVVLKNEMARANHYEDYGDYWRGDYEVNGVDGYDYSRGQLIEDVEHTFEEIKPLYEHLHAYVRAKLMNAYPSYISPIGCLPAHLLGDMWGRFWTNLYSLTVPFGQKPNIDVTDAMVDQAWDAQRIFKEAEKFFVSVGLPNMTQGFWENSMLTDPGNVQKAVCHPTAWDLGKGDFRILMCTKVTMDDFLTAHHEMGHIQYDMAYAAQPFLLRNGANEGFHEAVGEIMSLSAATPKHLKSIGLLSPDFQEDNETEINFLLKQALTIVGTLPFTYMLEKWRWMVFKGEIPKDQWMKKWWEMKREIVGVVEPVPHDETYCDPASLFHVSNDYSFIRYYTRTLYQFQFQEALCQAAKHEGPLHKCDISNSTEAGQKLFNMLRLGKSEPWTLALENVVGAKNMNVRPLLNYFEPLFTWLKDQNKNSFVGWSTDWSPYAD | 56.2 | – | –
4 | pxEBNCP10_tPa-hACE2(18-615)-AAA (receptor) QSTIEEQAKTFLDKFNHEAEDLFYQSSLASWNYNTNITEENVQNMNNAGDKWSAFLKEQSTLAQMYPLQEIQNLTVKLQLQALQQNGSSVLSEDKSKRLNTILNTMSTIYSTGKVCNPDAPAECLLLEPGLNEIMANSLDYNERLWAWESWRSEVGKALRPLYEEYVVLKNEMARANHYEDYGDYWRGDYEVNGVDGYDYSRGQLIEDVEHTFEEIKPLYEHLHAYVRAKLMNAYPSYISPIGCLPAHLLGDMWGRFWTNLYSLTVPFGQKPNIDVTDAMVDQAWDAQRIFKEAEKFFVSVGLPNMTQGFWENSMLTDPGNVQKAVCHPTAWDLGKGDFRILMCTKVTMDDFLTAHHEMGHIQYDMAYAAQPFLLRNGANEGFHEAVGEIMSLSAATPKHLKSIGLLSPDFQEDNETEINFLLKQALTIVGTLPFTYMLEKWRWMVFKGEIPKDQWMKKWWEMKREIVGVVEPVPHDETYCDPASLFHVSNDYSFIRYYTRTLYQFQFQEALCQAAKHEGPLHKCDISNSTEAGQKLFNMLRLGKSEPWTLALENVVGAKNMNVRPLLNYFEPLFTWLKDQNKNSFVGWSTDWSPYAD | 60.8 | – | –
5 | pxEBNCP15_hACE2-AAA-StrepTagII (receptor) QSTIEEQAKTFLDKFNHEAEDLFYQSSLASWNYNTNITEENVQNMNNAGDKWSAFLKEQSTLAQMYPLQEIQNLTVKLQLQALQQNGSSVLSEDKSKRLNTILNTMSTIYSTGKVCNPDAPAECLLLEPGLNEIMANSLDYNERLWAWESWRSEVGKALRPLYEEYVVLKNEMARANHYEDYGDYWRGDYEVNGVDGYDYSRGQLIEDVEHTFEEIKPLYEHLHAYVRAKLMNAYPSYISPIGCLPAHLLGDMWGRFWTNLYSLTVPFGQKPNIDVTDAMVDQAWDAQRIFKEAEKFFVSVGLPNMTQGFWENSMLTDPGNVQKAVCHPTAWDLGKGDFRILMCTKVTMDDFLTAHHEMGHIQYDMAYAAQPFLLRNGANEGFHEAVGEIMSLSAATPKHLKSIGLLSPDFQEDNETEINFLLKQALTIVGTLPFTYMLEKWRWMVFKGEIPKDQWMKKWWEMKREIVGVVEPVPHDETYCDPASLFHVSNDYSFIRYYTRTLYQFQFQEALCQAAKHEGPLHKCDISNSTEAGQKLFNMLRLGKSEPWTLALENVVGAKNMNVRPLLNYFEPLFTWLKDQNKNSFVGWSTDWSPYADGGSGWSHPQFEK | – | – | Kd (pxENB9-FLS-CT-His [2]): 4710 nM; Kd (pxENB17-RBD-His [3]): 110 nM; Response, shift in Wavelength (nm) (pxENB17-RBD-His [4]): 0.0062 nm
6 | pxEBNCP18_hACE2-AAA_p53 (receptor) QSTIEEQAKTFLDKFNHEAEDLFYQSSLASWNYNTNITEENVQNMNNAGDKWSAFLKEQSTLAQMYPLQEIQNLTVKLQLQALQQNGSSVLSEDKSKRLNTILNTMSTIYSTGKVCNPDAPAECLLLEPGLNEIMANSLDYNERLWAWESWRSEVGKALRPLYEEYVVLKNEMARANHYEDYGDYWRGDYEVNGVDGYDYSRGQLIEDVEHTFEEIKPLYEHLHAYVRAKLMNAYPSYISPIGCLPAHLLGDMWGRFWTNLYSLTVPFGQKPNIDVTDAMVDQAWDAQRIFKEAEKFFVSVGLPNMTQGFWENSMLTDPGNVQKAVCHPTAWDLGKGDFRILMCTKVTMDDFLTAHHEMGHIQYDMAYAAQPFLLRNGANEGFHEAVGEIMSLSAATPKHLKSIGLLSPDFQEDNETEINFLLKQALTIVGTLPFTYMLEKWRWMVFKGEIPKDQWMKKWWEMKREIVGVVEPVPHDETYCDPASLFHVSNDYSFIRYYTRTLYQFQFQEALCQAAKHEGPLHKCDISNSTEAGQKLFNMLRLGKSEPWTLALENVVGAKNMNVRPLLNYFEPLFTWLKDQNKNSFVGWSTDWSPYADGGGSKPLDGEYFTLQIRGRERFEMFRELNEALELKDAQAGKEPG | 0.001 | 0.001 | –
7 | pxENBCP23_hACE2_3A-mIgG(23) (Fc fusion) QSTIEEQAKTFLDKFNHEAEDLFYQSSLASWNYNTNITEENVQNMNNAGDKWSAFLKEQSTLAQMYPLQEIQNLTVKLQLQALQQNGSSVLSEDKSKRLNTILNTMSTIYSTGKVCNPDAPAECLLLEPGLNEIMANSLDYNERLWAWESWRSEVGKALRPLYEEYVVLKNEMARANHYEDYGDYWRGDYEVNGVDGYDYSRGQLIEDVEHTFEEIKPLYEHLHAYVRAKLMNAYPSYISPIGCLPAHLLGDMWGRFWTNLYSLTVPFGQKPNIDVTDAMVDQAWDAQRIFKEAEKFFVSVGLPNMTQGFWENSMLTDPGNVQKAVCHPTAWDLGKGDFRILMCTKVTMDDFLTAHHEMGHIQYDMAYAAQPFLLRNGANEGFHEAVGEIMSLSAATPKHLKSIGLLSPDFQEDNETEINFLLKQALTIVGTLPFTYMLEKWRWMVFKGEIPKDQWMKKWWEMKREIVGVVEPVPHDETYCDPASLFHVSNDYSFIRYYTRTLYQFQFQEALCQAAKHEGPLHKCDISNSTEAGQKLFNMLRLGKSEPWTLALENVVGAKNMNVRPLLNYFEPLFTWLKDQNKNSFVGWSTDWSPYADVPEVSSVFIFPPKPKDVLTITLTPKVTCVVVDISKDDPEVQFSWFVDDVEVHTAQTQPREEQFNSTFRSVSELPIMHQDWLNGKEFKCRVNSAAFPAPIEKTISKTKGRPKAPQVYTIPPPKEQMAKDKVSLTCMITDFFPEDITVEWQWNGQPAENYKNTQPIMNTNGSYFVYSKLNVQKSNWEAGNTFTCSVLHEGLHNHHTEKSLSHSPGK | 24.5 | 38.7 | –
8 | pxEBNCP22_hACE2_3A-mIgG(h23) (Fc fusion) QSTIEEQAKTFLDKFNHEAEDLFYQSSLASWNYNTNITEENVQNMNNAGDKWSAFLKEQSTLAQMYPLQEIQNLTVKLQLQALQQNGSSVLSEDKSKRLNTILNTMSTIYSTGKVCNPDAPAECLLLEPGLNEIMANSLDYNERLWAWESWRSEVGKALRPLYEEYVVLKNEMARANHYEDYGDYWRGDYEVNGVDGYDYSRGQLIEDVEHTFEEIKPLYEHLHAYVRAKLMNAYPSYISPIGCLPAHLLGDMWGRFWTNLYSLTVPFGQKPNIDVTDAMVDQAWDAQRIFKEAEKFFVSVGLPNMTQGFWENSMLTDPGNVQKAVCHPTAWDLGKGDFRILMCTKVTMDDFLTAHHEMGHIQYDMAYAAQPFLLRNGANEGFHEAVGEIMSLSAATPKHLKSIGLLSPDFQEDNETEINFLLKQALTIVGTLPFTYMLEKWRWMVFKGEIPKDQWMKKWWEMKREIVGVVEPVPHDETYCDPASLFHVSNDYSFIRYYTRTLYQFQFQEALCQAAKHEGPLHKCDISNSTEAGQKLFNMLRLGKSEPWTLALENVVGAKNMNVRPLLNYFEPLFTWLKDQNKNSFVGWSTDWSPYADVPRDCGCKPCICTVPEVSSVFIFPPKPKDVLTITLTPKVTCVVVDISKDDPEVQFSWFVDDVEVHTAQTQPREEQFNSTFRSVSELPIMHQDWLNGKEFKCRVNSAAFPAPIEKTISKTKGRPKAPQVYTIPPPKEQMAKDKVSLTCMITDFFPEDITVEWQWNGQPAENYKNTQPIMNTNGSYFVYSKLNVQKSNWEAGNTFTCSVLHEGLHNHHTEKSLSHSPGK | 0.953 | 0.001 | –
